According to patent EP1680442B1 (Bioincept, LLC., dated 2011):
Ends that are not written are not given here.

Molecular target: T1, AbPIF-1(15)
T1 construct: also called AbPIP-1(15); PIF-1 antibody
Assay: competition ELISA, pAb coated at 4.5 ug/ml, unlabelled against biotinylated peptide

B1: sPIF-1(15) (peptide)
peptide: MVRIKPGSANKPSDD
modifications: not fully specified; also: flow cytometry form: FITC on N-terminus via β-alanine spacer
notes: Synthetic 15-residue peptide; In flow cytometry it carried FITC on the N-terminus through a b-alanine spacer; also called synthetic PIF-1; FITC sPIF-1(15)
For B1, which IC50 is on record?
The IC50 was 0.5 to 0.7 nM.
